T1: SN-F (Sendai virus, UniProt P04855)
T1 sequence (P04855 117-565 limits assumed): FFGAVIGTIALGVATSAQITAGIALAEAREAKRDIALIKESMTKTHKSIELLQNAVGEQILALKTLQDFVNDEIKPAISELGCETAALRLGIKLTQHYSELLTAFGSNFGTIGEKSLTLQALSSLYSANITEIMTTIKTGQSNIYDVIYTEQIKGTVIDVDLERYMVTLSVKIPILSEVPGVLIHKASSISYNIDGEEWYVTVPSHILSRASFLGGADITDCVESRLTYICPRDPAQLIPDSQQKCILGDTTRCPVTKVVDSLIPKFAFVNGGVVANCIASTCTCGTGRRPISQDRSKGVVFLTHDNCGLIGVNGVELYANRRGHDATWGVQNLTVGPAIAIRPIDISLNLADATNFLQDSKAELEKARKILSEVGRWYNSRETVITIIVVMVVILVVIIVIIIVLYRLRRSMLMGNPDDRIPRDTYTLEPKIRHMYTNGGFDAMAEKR
T1 sequence (P04855 26-116 partner limits assumed): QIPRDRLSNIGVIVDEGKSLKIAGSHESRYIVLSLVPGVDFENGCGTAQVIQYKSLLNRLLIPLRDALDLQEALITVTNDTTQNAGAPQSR


Key:
Type in all cases: cell-based
HeLa-T4 cells = system: HeLa-T4 cells
SN-F = target: T1, SN-F
guinea pig erythrocytes = system: guinea pig erythrocytes

Row | Molecule | Cell surface expression (%) (HeLa-T4 cells) | Fusion activity (5) (SN-F) | Relative fusion promoting activity b/a (SN-F) | cell fusion / syncytium formation with SN-F observed by microscopy (SN-F) | hemadsorption observed under the microscope (guinea pig erythrocytes)
1 | PI3-HN: wild type human parainfluenza type 3 virus HN protein (protein) MEYWKHTNHGKDAGNELETSMATHGNKITNKITYILWTIILVLLSIVFIIVLINSIKSEKAHESLLQDVNNEFMEVTEKIQMASDNINDLIQSGVNTRLLTIQSHVQNYIPISLTQQMSDLRKFISEITIRNDNQEVPPQRITHDVGIKPLNPDDFWRCTSGLPSLMKTPKIRLMPGPGLLAMPTTVDGCVRTPSLVINDLIYAYTSNLITRGCQDIGKSYQVLQIGIITVNSDLVPDLNPRISHTFNINDNRKSCSLALLNTDVYQLCSTPKVDERSDYASSGIEDIVLDIVNHDGSISTTRFKNNNISFDQPYAALYPSVGPGIYYKGKIIFLGYGGLEHPINENAICNTTGCPGKTQRDCNQASHSPWFSDRRMVNSIIVVDKGLNSIPKLKVWTISMRQNYWGSEGRLLLLGNKIYIYTRSTSWHSKLQLGIIDITDYSDIRIKWTWHNVLSRPGNNECPWGHSCPDGCITGVYTDAYPLNPTGSIVSSVILDSQKSRVNPVITYSTSTERVNELAIRNKTLSAGYTTTSCITHYNKGYCFHIVEINHKSLDTFQPMLFKTEIPKSCS | 100.0 | 3.47 | 0.03 | no cell fusion was observed | 
2 | SN-HN: wild type Sendai virus hemagglutinin-neuraminidase (HN) protein (protein) MDGDRGKRDSYWSTSPSGSTTKPASGWERSSKADTWLLILSFTQWALSIATVIICIIISARQGYSMKEYSMTVEALNMSSREVKESLTSLIRQEVIARAVNIQSSVQTGIPVLLNKNSRDVIQMIDKSCSRQELTQHCESTIAVHHADGIAPLEPHSFWRCPVGEPYLSSDPEISLLPGPSLLSGSTTISGCVRLPSLSIGEAIYAYSSNLITQGCADIGKSYQVLQLGYISLNSDMFPDLNPVVSHTYDINDNRKSCSVVATGTRGYQLCSMPTVDERTDYSSDGIEDLVLDVLDLKGRTKSHRYRNSEVDLDHPFSALYPSVGNGIATEGSLIFLGYGGLTTPLQGDTKCRTQGCQQVSQDTCNEALKITWLGGKQVVSVIIQVNDYLSERPKIRVTTIPITQNYLGAEGRLLKLGDRVYIYTRSSGWHSQLQIGVLDVSHPLTINWTPHEALSRPGNKECNWYNKCPKECISGVYTDAYPLSPDAANVATVTLYANTSRVNPTIMYSNTTNIINMLRIKDVQLEAAYTTTSCITHFGKGYCFHIIEINQKSLNTLQPMLFKTSIPKLCKAES | 163.9 | 100.00 | 0.61 | Extensive cell fusion | high levels of hemadsorption
